# Reference: US20200270325A1 (Merck Sharp & Dohme, published 2020)
# Numbered stars: 1 amine (or outer) side, 2 acyl side, 3 side chain; on linkers, the order of the positions; unused ones are H or OH. Square brackets hold non-standard residues; d marks the D form. Side chains are listed from the residue outwards. Ends that are not written are not given here. * marks the point of attachment. Phe(4-CH2NH2) = NCc1ccc(C[C@H](N)C(=O)O)cc1; C18 diacid = O=C(O)CCCCCCCCCCCCCCCCC(=O)*; αMeW = C[C@](N)(Cc1c[nH]c2ccccc12)C(=O)O; C16 diacid = O=C(O)CCCCCCCCCCCCCCC(=O)*; γGlu = O=C(O)[C@H](CCC(=O)[*:2])N[*:1]; Met(O2) = CS(=O)(=O)CC[C@H](N)C(=O)O; αMeF = C[C@](N)(Cc1ccccc1)C(=O)O; αMeD = C[C@](N)(CC(=O)O)C(=O)O; AEEA = NCCOCCOCC(=O)O; Aib = CC(C)(N)C(=O)O
# B1: TP640 (peptide)
# peptide: H[Aib]QGTFTSDYSKLLDARAAK([AEEA-AEEA-γGlu-C18 diacid])DFVQWL[Met(O2)][αMeD]T-NH2
# modifications: N-terminus assumed
# SMILES: CC(C)C[C@H](NC(=O)[C@H](CC(C)C)NC(=O)[C@H](CCCCN)NC(=O)[C@H](CO)NC(=O)[C@H](Cc1ccc(O)cc1)NC(=O)[C@H](CC(=O)O)NC(=O)[C@H](CO)NC(=O)[C@@H](NC(=O)[C@H](Cc1ccccc1)NC(=O)[C@@H](NC(=O)CNC(=O)[C@H](CCC(N)=O)NC(=O)C(C)(C)NC(=O)[C@@H](N)Cc1c[nH]cn1)[C@@H](C)O)[C@@H](C)O)C(=O)N[C@@H](CC(=O)O)C(=O)N[C@@H](C)C(=O)N[C@@H](CCCNC(=N)N)C(=O)N[C@@H](C)C(=O)N[C@@H](C)C(=O)N[C@@H](CCCCNC(=O)COCCOCCNC(=O)COCCOCCNC(=O)CC[C@H](NC(=O)CCCCCCCCCCCCCCCCC(=O)O)C(=O)O)C(=O)N[C@@H](CC(=O)O)C(=O)N[C@@H](Cc1ccccc1)C(=O)N[C@H](C(=O)N[C@@H](CCC(N)=O)C(=O)N[C@@H](Cc1c[nH]c2ccccc12)C(=O)N[C@@H](CC(C)C)C(=O)N[C@@H](CCS(C)(=O)=O)C(=O)N[C@@](C)(CC(=O)O)C(=O)N[C@H](C(N)=O)[C@@H](C)O)C(C)C
# B2: TP609 (peptide)
# peptide: H[Aib]QGTFTSDYSKYLDARAAQ[Phe(4-CH2NH2)]([AEEA-AEEA-γGlu-C18 diacid])FVQWLL[αMeD]T-NH2
# modifications: N-terminus assumed
# SMILES: CC(C)C[C@H](NC(=O)[C@H](Cc1ccc(O)cc1)NC(=O)[C@H](CCCCN)NC(=O)[C@H](CO)NC(=O)[C@H](Cc1ccc(O)cc1)NC(=O)[C@H](CC(=O)O)NC(=O)[C@H](CO)NC(=O)[C@@H](NC(=O)[C@H](Cc1ccccc1)NC(=O)[C@@H](NC(=O)CNC(=O)[C@H](CCC(N)=O)NC(=O)C(C)(C)NC(=O)[C@@H](N)Cc1c[nH]cn1)[C@@H](C)O)[C@@H](C)O)C(=O)N[C@@H](CC(=O)O)C(=O)N[C@@H](C)C(=O)N[C@@H](CCCNC(=N)N)C(=O)N[C@@H](C)C(=O)N[C@@H](C)C(=O)N[C@@H](CCC(N)=O)C(=O)N[C@@H](Cc1ccc(CNC(=O)COCCOCCNC(=O)COCCOCCNC(=O)CC[C@H](NC(=O)CCCCCCCCCCCCCCCCC(=O)O)C(=O)O)cc1)C(=O)N[C@@H](Cc1ccccc1)C(=O)N[C@H](C(=O)N[C@@H](CCC(N)=O)C(=O)N[C@@H](Cc1c[nH]c2ccccc12)C(=O)N[C@@H](CC(C)C)C(=O)N[C@@H](CC(C)C)C(=O)N[C@@](C)(CC(=O)O)C(=O)N[C@H](C(N)=O)[C@@H](C)O)C(C)C
# B3: TP595 (peptide)
# peptide: H[Aib]QGTFFSDYSKYLDARAAK([AEEA-AEEA-γGlu-C18 diacid])DFVQWL[Met(O2)]DT-NH2
# modifications: N-terminus assumed
# SMILES: CC(C)C[C@H](NC(=O)[C@H](Cc1ccc(O)cc1)NC(=O)[C@H](CCCCN)NC(=O)[C@H](CO)NC(=O)[C@H](Cc1ccc(O)cc1)NC(=O)[C@H](CC(=O)O)NC(=O)[C@H](CO)NC(=O)[C@H](Cc1ccccc1)NC(=O)[C@H](Cc1ccccc1)NC(=O)[C@@H](NC(=O)CNC(=O)[C@H](CCC(N)=O)NC(=O)C(C)(C)NC(=O)[C@@H](N)Cc1c[nH]cn1)[C@@H](C)O)C(=O)N[C@@H](CC(=O)O)C(=O)N[C@@H](C)C(=O)N[C@@H](CCCNC(=N)N)C(=O)N[C@@H](C)C(=O)N[C@@H](C)C(=O)N[C@@H](CCCCNC(=O)COCCOCCNC(=O)COCCOCCNC(=O)CC[C@H](NC(=O)CCCCCCCCCCCCCCCCC(=O)O)C(=O)O)C(=O)N[C@@H](CC(=O)O)C(=O)N[C@@H](Cc1ccccc1)C(=O)N[C@H](C(=O)N[C@@H](CCC(N)=O)C(=O)N[C@@H](Cc1c[nH]c2ccccc12)C(=O)N[C@@H](CC(C)C)C(=O)N[C@@H](CCS(C)(=O)=O)C(=O)N[C@@H](CC(=O)O)C(=O)N[C@H](C(N)=O)[C@@H](C)O)C(C)C
# B4: TP594 (peptide)
# peptide: HXQGTFTSDYSKYLDARAAXXFVQWLXDT
# modifications: Aib (U) at 2; K(PEG2PEG2γEC20-OH) at 20; αMD at 21; L-methionine sulphone (2) at 27; C-terminal amide
# B5: TP630 (peptide)
# peptide: H[Aib]QGTFTSDYSKYLDARAAK([AEEA-AEEA-γGlu-C16 diacid])DFVQ[αMeW]L[Met(O2)]DT-NH2
# modifications: N-terminus assumed
# SMILES: CC(C)C[C@H](NC(=O)[C@H](Cc1ccc(O)cc1)NC(=O)[C@H](CCCCN)NC(=O)[C@H](CO)NC(=O)[C@H](Cc1ccc(O)cc1)NC(=O)[C@H](CC(=O)O)NC(=O)[C@H](CO)NC(=O)[C@@H](NC(=O)[C@H](Cc1ccccc1)NC(=O)[C@@H](NC(=O)CNC(=O)[C@H](CCC(N)=O)NC(=O)C(C)(C)NC(=O)[C@@H](N)Cc1c[nH]cn1)[C@@H](C)O)[C@@H](C)O)C(=O)N[C@@H](CC(=O)O)C(=O)N[C@@H](C)C(=O)N[C@@H](CCCNC(=N)N)C(=O)N[C@@H](C)C(=O)N[C@@H](C)C(=O)N[C@@H](CCCCNC(=O)COCCOCCNC(=O)COCCOCCNC(=O)CC[C@H](NC(=O)CCCCCCCCCCCCCCC(=O)O)C(=O)O)C(=O)N[C@@H](CC(=O)O)C(=O)N[C@@H](Cc1ccccc1)C(=O)N[C@H](C(=O)N[C@@H](CCC(N)=O)C(=O)N[C@@](C)(Cc1c[nH]c2ccccc12)C(=O)N[C@@H](CC(C)C)C(=O)N[C@@H](CCS(C)(=O)=O)C(=O)N[C@@H](CC(=O)O)C(=O)N[C@H](C(N)=O)[C@@H](C)O)C(C)C
# B6: TP628 (peptide)
# peptide: H[Aib]QGTFTSDYSKYLDARAAK([AEEA-γGlu-C18 diacid])DFVQWL[Met(O2)][αMeD]T-NH2
# modifications: N-terminus assumed
# SMILES: CC(C)C[C@H](NC(=O)[C@H](Cc1ccc(O)cc1)NC(=O)[C@H](CCCCN)NC(=O)[C@H](CO)NC(=O)[C@H](Cc1ccc(O)cc1)NC(=O)[C@H](CC(=O)O)NC(=O)[C@H](CO)NC(=O)[C@@H](NC(=O)[C@H](Cc1ccccc1)NC(=O)[C@@H](NC(=O)CNC(=O)[C@H](CCC(N)=O)NC(=O)C(C)(C)NC(=O)[C@@H](N)Cc1c[nH]cn1)[C@@H](C)O)[C@@H](C)O)C(=O)N[C@@H](CC(=O)O)C(=O)N[C@@H](C)C(=O)N[C@@H](CCCNC(=N)N)C(=O)N[C@@H](C)C(=O)N[C@@H](C)C(=O)N[C@@H](CCCCNC(=O)COCCOCCNC(=O)CC[C@H](NC(=O)CCCCCCCCCCCCCCCCC(=O)O)C(=O)O)C(=O)N[C@@H](CC(=O)O)C(=O)N[C@@H](Cc1ccccc1)C(=O)N[C@H](C(=O)N[C@@H](CCC(N)=O)C(=O)N[C@@H](Cc1c[nH]c2ccccc12)C(=O)N[C@@H](CC(C)C)C(=O)N[C@@H](CCS(C)(=O)=O)C(=O)N[C@@](C)(CC(=O)O)C(=O)N[C@H](C(N)=O)[C@@H](C)O)C(C)C
# B7: TP587 (peptide)
# peptide: H[Aib]QGTFTSDYSKYLDERAA[Phe(4-CH2NH2)]([AEEA-AEEA-γGlu-C18 diacid])DFVQWLLKT-NH2
# modifications: N-terminus assumed
# SMILES: CC(C)C[C@H](NC(=O)[C@H](Cc1ccc(O)cc1)NC(=O)[C@H](CCCCN)NC(=O)[C@H](CO)NC(=O)[C@H](Cc1ccc(O)cc1)NC(=O)[C@H](CC(=O)O)NC(=O)[C@H](CO)NC(=O)[C@@H](NC(=O)[C@H](Cc1ccccc1)NC(=O)[C@@H](NC(=O)CNC(=O)[C@H](CCC(N)=O)NC(=O)C(C)(C)NC(=O)[C@@H](N)Cc1c[nH]cn1)[C@@H](C)O)[C@@H](C)O)C(=O)N[C@@H](CC(=O)O)C(=O)N[C@@H](CCC(=O)O)C(=O)N[C@@H](CCCNC(=N)N)C(=O)N[C@@H](C)C(=O)N[C@@H](C)C(=O)N[C@@H](Cc1ccc(CNC(=O)COCCOCCNC(=O)COCCOCCNC(=O)CC[C@H](NC(=O)CCCCCCCCCCCCCCCCC(=O)O)C(=O)O)cc1)C(=O)N[C@@H](CC(=O)O)C(=O)N[C@@H](Cc1ccccc1)C(=O)N[C@H](C(=O)N[C@@H](CCC(N)=O)C(=O)N[C@@H](Cc1c[nH]c2ccccc12)C(=O)N[C@@H](CC(C)C)C(=O)N[C@@H](CC(C)C)C(=O)N[C@@H](CCCCN)C(=O)N[C@H](C(N)=O)[C@@H](C)O)C(C)C
# B8: TP577 (peptide)
# peptide: HXQGTFTSDYSKYLDSRAAXDFVQWLXDT
# modifications: Aib (U) at 2; K(PEG2PEG2γEC20-OH) at 20; L-methionine sulphone (2) at 27; C-terminal amide
# Target: human Glucagon receptor (GCGR) (human, UniProt P47871 26-477)
# Sequence (P47871 26-477): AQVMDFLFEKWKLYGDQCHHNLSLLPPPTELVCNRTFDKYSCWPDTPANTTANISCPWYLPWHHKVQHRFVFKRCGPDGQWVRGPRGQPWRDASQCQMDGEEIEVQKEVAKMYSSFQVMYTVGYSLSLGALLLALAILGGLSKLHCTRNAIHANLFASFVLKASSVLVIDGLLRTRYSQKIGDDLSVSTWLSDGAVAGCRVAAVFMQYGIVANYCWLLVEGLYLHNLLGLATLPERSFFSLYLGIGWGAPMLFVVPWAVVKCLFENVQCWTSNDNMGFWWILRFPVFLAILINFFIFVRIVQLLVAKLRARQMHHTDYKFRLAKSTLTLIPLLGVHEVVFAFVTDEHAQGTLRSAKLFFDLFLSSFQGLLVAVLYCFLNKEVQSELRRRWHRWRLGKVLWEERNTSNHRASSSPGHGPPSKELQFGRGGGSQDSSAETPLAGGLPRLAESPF
# Assay: cell-based or functional assay
row,Binder,GCGR EC50 human
1,B1,0.69 nM
2,H[dS]QGTFTSDYSKYLE[Aib]RAAK([AEEA-AEEA-γGlu-C20‑OH])DFVQWLL[Aib]TK-{γGlu-NH2} [TP579],> 19.9 nM
3,B2,0.36 nM
4,"HXQGTFTSDXSKYLDARAAQDFVQWLLDT (D-Ser (s) at 2; Nle(1,2,3-triazole-4-C15) at 10; C-terminal amide) [TP829]",1.06 nM
5,H[Aib]QGTFTSDYSKYLDERAA[Phe(4-CH2NH2)]([AEEA-AEEA-γGlu-C20‑OH])DFVQWLLKT-NH2 [TP586],4.95 nM
6,H[Aib]QGTFTSDYSKYLD[Aib]RAAQDFVK([AEEA-AEEA-γGlu-C20‑OH])WL[Met(O2)]DT-NH2 [TP576],1.45 nM
7,"HXQGTFTSDXSKYLDARAAQDFVQWLLDT (D-Ser (s) at 2; Nle(1,2,3-triazole-4-C4-Lys-C16) at 10; C-terminal amide) [TP831]",0.14 nM
8,H[Aib]QGTFTSDYSKYLDARAAK([AEEA-AEEA-γGlu-C20‑OH])D[αMeF]VQWL[Met(O2)]DT-NH2 [TP590],5.03 nM
9,B3,0.4 nM
10,B4,4.95 nM
11,B5,0.89 nM
12,B6,0.86 nM
13,B7,2.49 nM
14,B8,4.54 nM
15,"HXQGTFTSDXSKYLDARAAQDFVQWLLDT (D-Ser (s) at 2; Nle(1,2,3-triazole-4-γE-C16) at 10; C-terminal amide) [TP830]",0.14 nM

# Target: human GLP-1 receptor (GLP1R) (human, UniProt P43220 24-463)
# Assay: cell-based or functional assay
row,Binder,GLP1R EC50 human
1,B1,0.84 nM
2,H[dS]QGTFTSDYSKYLE[Aib]RAAK([AEEA-AEEA-γGlu-C20‑OH])DFVQWLL[Aib]TK-{γGlu-NH2} [TP579],14.7 nM
3,B2,0.42 nM
4,"HXQGTFTSDXSKYLDARAAQDFVQWLLDT (D-Ser (s) at 2; Nle(1,2,3-triazole-4-C15) at 10; C-terminal amide) [TP829]",0.68 nM
5,H[Aib]QGTFTSDYSKYLDERAA[Phe(4-CH2NH2)]([AEEA-AEEA-γGlu-C20‑OH])DFVQWLLKT-NH2 [TP586],1.23 nM
6,H[Aib]QGTFTSDYSKYLD[Aib]RAAQDFVK([AEEA-AEEA-γGlu-C20‑OH])WL[Met(O2)]DT-NH2 [TP576],1.88 nM
7,"HXQGTFTSDXSKYLDARAAQDFVQWLLDT (D-Ser (s) at 2; Nle(1,2,3-triazole-4-C4-Lys-C16) at 10; C-terminal amide) [TP831]",0.08 nM
8,H[Aib]QGTFTSDYSKYLDARAAK([AEEA-AEEA-γGlu-C20‑OH])D[αMeF]VQWL[Met(O2)]DT-NH2 [TP590],1.64 nM
9,B3,> 20 nM
10,B4,2.6 nM
11,B5,0.29 nM
12,B6,1.39 nM
13,B7,0.41 nM
14,B8,1.67 nM
15,"HXQGTFTSDXSKYLDARAAQDFVQWLLDT (D-Ser (s) at 2; Nle(1,2,3-triazole-4-γE-C16) at 10; C-terminal amide) [TP830]",0.22 nM
